Test results reported in patent US11535650 (RA PHARMACEUTICALS, dated 2022).
Starred links: 1 amine or outer side, 2 acyl side, 3 side chain; linkers in the order of their positions; H or OH if unused. Positions of bridges follow the written chain, without caps; N, C: chain ends. Non-standard residues stand in square brackets, D forms with d. Primed or numbered codes have the meaning given here. No end group written: not given here. mXylyl(3) = bridging moiety between the two residues given in brackets; mXylyl(5) = bridging moiety between the two residues (meta-xylyl); Phe(3-CH2NH2) = O=C([C@H](Cc1cccc(CN[*:3])c1)N[*:1])[*:2]; Trp(5-F) = N[C@@H](Cc1c[nH]c2ccc(F)cc12)C(=O)O; Trp(7-aza) = N[C@@H](Cc1c[nH]c2ncccc12)C(=O)O; mXylyl(4) = bridging moiety between residues; hPhe(3-Cl) = N[C@@H](CCc1cccc(Cl)c1)C(=O)O; 2Nal = N[C@@H](Cc1ccc2ccccc2c1)C(=O)O; Phg(2-OMe) = COc1ccccc1[C@H](N)C(=O)O; hPhe = N[C@@H](CCc1ccccc1)C(=O)O; dChg = N[C@@H](C(=O)O)C1CCCCC1; Chg = N[C@H](C(=O)O)C1CCCCC1; Phg = N[C@H](C(=O)O)c1ccccc1; Tle = CC(C)(C)[C@H](N)C(=O)O; NMeS = CN[C@@H](CO)C(=O)O; Nva = CCC[C@H](N)C(=O)O; Aib = CC(C)(N)C(=O)O

How the values were obtained:
human C5 protein [1] = biological target: T1, human C5 protein (human, UniProt P01031 19-673; P01031 678-1676); assay: cell-based or functional assay
human C5 protein [2] = biological target: T1, human C5 protein; assay: cell-based or functional assay; remark: listed apart in the source

Binder | Avg. IC50, hemolysis assay (C5 depleted sera + purified human C5) (human C5 protein [1]) [µM] | Avg. IC50, human hemolysis assay (complete human sera) (human C5 protein [2]) [µM]
Ac-CVERFCD[Tle]Y[Trp(7-aza)]EWP[Chg][Nva] (linker 1-6 via mXylyl(3)) [R3177] | 0.012 | 
Ac-[Nva]C[dChg]T[Trp(7-aza)]EY[NMeS]AC[Nva]-NH2 (linker 2-10 via mXylyl(4)) [R3093] |  | > 100
Ac-[Nva]C[Phg]T[Trp(7-aza)]NY[NMeS]AC[Nva]-NH2 (linker 2-10 via mXylyl(4)) [R3099] |  | > 100
Ac-[Nva]C[Phg][Aib][Trp(7-aza)]EY[NMeS]HC[Nva]-NH2 (linker 2-10 via mXylyl(3)) [R3096] |  | > 50
Ac-CVERFCD[Tle]Y[Phe(3-CH2NH2)]EYP[Chg][Nva] (linker 1-6 via mXylyl(3)) [R3181] | 1.5 | 
Ac-[Nva]C[Phg(2-OMe)]T[Trp(7-aza)]EY[NMeS]HC[Nva]-NH2 (linker 2-10 via mXylyl(5)) [R3087] |  | > 25
Ac-CVERFCD[Tle]Y[Trp(7-aza)]E[hPhe(3-Cl)]P[Chg][Nva] (linker 1-6 via mXylyl(3)) [R3179] | 0.083 | 
Ac-CVERFCD[Tle]Y[Trp(7-aza)]E[2Nal]P[Chg][Nva] (linker 1-6 via mXylyl(3)) [R3180] | 0.029 | 
Ac-[Chg]C[Phg]T[Trp(7-aza)]EY[NMeS]AC[Nva]-NH2 (linker 2-10 via mXylyl(4)) [R3089] |  | > 15
Ac-[Nva]C[Phg]T[Trp(7-aza)]E[hPhe][NMeS]AC[Nva]-NH2 (linker 2-10 via mXylyl(4)) [R3095] |  | > 50
Ac-[Nva]C[Phg]T[Trp(7-aza)]EF[NMeS]AC[Nva]-NH2 (linker 2-10 via mXylyl(4)) [R3100] |  | 0.626
Ac-[Nva]C[Phg]TFEY[NMeS]AC[Nva]-NH2 (linker 2-10 via mXylyl(4)) [R3092] |  | > 50
Ac-[Nva]C[Phg]T[Trp(7-aza)]DY[NMeS]AC[Nva]-NH2 (linker 2-10 via mXylyl(4)) [R3097] |  | > 100
Ac-[Nva]C[Phg]T[Trp(7-aza)]QY[NMeS]AC[Nva]-NH2 (linker 2-10 via mXylyl(4)) [R3098] |  | > 100
Ac-[Nva]C[Phg]T[Trp(5-F)]EY[NMeS]AC[Nva]-NH2 (linker 2-10 via mXylyl(5)) [R3088] |  | > 100
Ac-[Nva]CFT[Trp(7-aza)]EY[NMeS]AC[Nva]-NH2 (linker 2-10 via mXylyl(4)) [R3090] |  | > 100
Ac-[Nva]C[Phg]TWEY[NMeS]AC[Nva]-NH2 (linker 2-10 via mXylyl(4)) [R3091] |  | 0.483
